According to article PMC3997432, “A Truncated Form of Rod Photoreceptor PDE6 β-Subunit Causes Autosomal Dominant Congenital Stationary Night Blindness by Interfering with the Inhibitory Activity of the γ-Subunit” (PLoS ONE, 2014):
No end group written: not given here. *: point of attachment. BC = 3-(bromoacetyl)-7-diethyl-aminocoumarin, CCN(CC)c1ccc2cc(C(=O)C*)c(=O)oc2c1

Assays:
[1] = target: T1, PDE6β1-313 (PDE6-specific N-terminal portion of the human rod cGMP phosphodiesterase type 6 β-subunit … (human, UniProt P35913-1 1-313)); experiment: other fluorescence titration; CysBC-Pγ24-45 (50 nM) in 1 ml of 100 mM PBS buffer (pH 7.5), increasing concentrations of PDE6β1-313 added; excitation 445 nm, emission 490 nm; fit to a hyperbola; settings: both partners purified
T1 construct: rod cGMP phosphodiesterase type 6 β-subunit (PDE6β), human, residues 1-313; contains the GAFa domain and a portion of the GAFb domain; amplified from a human retinal cDNA library; Cloned into pET15b with NdeI/BamHI; no removal of the tag is described; also called His6-tagged PDE6β1-313; truncated PDE6β

[2] = target: trypsin-activated bovine PDE6 (tPDE6), PDE6αβ catalytic subunits lacking the inhibitory Pγ subunits (bovine) (UniProt P11541)
Chain of trypsin-activated bovine PDE6 (tPDE6), PDE6αβ catalytic subunits lacking the inhibitory Pγ subunits (bovine) (P11541 whole entry, chain 1 of 2): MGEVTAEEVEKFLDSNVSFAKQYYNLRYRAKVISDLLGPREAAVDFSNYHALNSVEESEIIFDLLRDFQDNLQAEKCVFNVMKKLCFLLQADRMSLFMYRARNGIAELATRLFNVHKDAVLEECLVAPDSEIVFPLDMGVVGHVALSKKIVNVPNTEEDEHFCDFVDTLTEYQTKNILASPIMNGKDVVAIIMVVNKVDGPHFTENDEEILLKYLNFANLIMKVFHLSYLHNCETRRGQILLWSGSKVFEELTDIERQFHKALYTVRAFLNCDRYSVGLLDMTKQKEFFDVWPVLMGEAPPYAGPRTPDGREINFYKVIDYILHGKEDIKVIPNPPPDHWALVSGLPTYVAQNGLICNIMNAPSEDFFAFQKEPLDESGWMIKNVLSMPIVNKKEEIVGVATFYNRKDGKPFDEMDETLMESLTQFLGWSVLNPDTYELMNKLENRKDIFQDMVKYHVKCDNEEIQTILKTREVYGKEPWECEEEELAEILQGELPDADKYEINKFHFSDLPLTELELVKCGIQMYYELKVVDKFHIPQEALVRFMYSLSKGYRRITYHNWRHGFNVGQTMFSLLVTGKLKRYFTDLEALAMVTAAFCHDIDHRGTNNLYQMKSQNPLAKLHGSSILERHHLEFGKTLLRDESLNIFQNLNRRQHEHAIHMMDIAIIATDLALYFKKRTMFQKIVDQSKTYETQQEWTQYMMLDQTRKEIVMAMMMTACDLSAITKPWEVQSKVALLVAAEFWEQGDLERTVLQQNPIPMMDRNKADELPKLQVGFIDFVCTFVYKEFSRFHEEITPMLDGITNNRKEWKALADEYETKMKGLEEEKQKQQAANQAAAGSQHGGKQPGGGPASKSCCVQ
Chain of trypsin-activated bovine PDE6 (tPDE6), PDE6αβ catalytic subunits lacking the inhibitory Pγ subunits (bovine) (P23439 whole entry, chain 2 of 2, further chain): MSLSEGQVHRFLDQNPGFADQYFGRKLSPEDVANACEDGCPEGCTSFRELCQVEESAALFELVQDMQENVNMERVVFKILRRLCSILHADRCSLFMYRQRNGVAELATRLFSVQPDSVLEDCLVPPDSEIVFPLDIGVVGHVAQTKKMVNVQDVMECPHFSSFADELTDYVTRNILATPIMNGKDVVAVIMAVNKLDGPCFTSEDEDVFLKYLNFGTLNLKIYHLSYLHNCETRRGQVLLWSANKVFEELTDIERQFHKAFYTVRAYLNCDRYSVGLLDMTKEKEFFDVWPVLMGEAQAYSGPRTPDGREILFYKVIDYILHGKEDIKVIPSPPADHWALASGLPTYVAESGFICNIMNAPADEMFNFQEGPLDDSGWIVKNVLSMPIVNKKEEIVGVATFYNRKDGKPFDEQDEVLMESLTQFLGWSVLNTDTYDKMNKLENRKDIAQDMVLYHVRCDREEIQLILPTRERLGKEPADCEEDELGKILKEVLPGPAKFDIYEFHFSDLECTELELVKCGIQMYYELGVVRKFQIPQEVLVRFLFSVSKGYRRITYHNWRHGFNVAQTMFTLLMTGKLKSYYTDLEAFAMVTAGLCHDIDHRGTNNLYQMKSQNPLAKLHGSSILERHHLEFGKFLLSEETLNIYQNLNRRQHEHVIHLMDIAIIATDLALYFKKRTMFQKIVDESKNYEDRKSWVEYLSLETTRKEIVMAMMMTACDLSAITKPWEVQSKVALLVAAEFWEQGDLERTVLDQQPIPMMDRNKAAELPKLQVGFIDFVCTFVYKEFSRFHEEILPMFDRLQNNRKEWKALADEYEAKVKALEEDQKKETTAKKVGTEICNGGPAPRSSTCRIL

T1 sequence (P35913 1-313, stated change not applied): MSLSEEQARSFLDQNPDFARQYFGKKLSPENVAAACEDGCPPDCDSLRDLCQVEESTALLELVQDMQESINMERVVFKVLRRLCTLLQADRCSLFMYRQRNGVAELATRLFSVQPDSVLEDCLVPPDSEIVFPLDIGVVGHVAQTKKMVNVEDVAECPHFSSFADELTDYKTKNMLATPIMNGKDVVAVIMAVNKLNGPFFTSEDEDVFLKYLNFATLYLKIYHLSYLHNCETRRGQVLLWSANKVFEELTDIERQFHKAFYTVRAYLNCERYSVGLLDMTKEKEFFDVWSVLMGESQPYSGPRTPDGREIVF

Row | Kd [1] | IC50 of the inhibition of tPDE6 (50 pM) activity ([3H]cGMP hydrolysis) by increasing concentrations of Pγ, in the absence of PDE6β1-313 [2] | IC50 of the inhibition of tPDE6 (50 pM) activity ([3H]cGMP hydrolysis) by increasing concentrations of Pγ, in the presence of 2 µM PDE6β1-313 [2] | Binder
1 | 320 nM | – | – | C(BC)RKGPPKFKQRQTRQFKSKPPKK (Cys added at the N-terminus of the peptide to carry the probe (Cys-Pγ24-45); also called fluorescently labeled Pγ24-45; polycationic region of Pγ; source: synthetic peptide)
2 | – | 0.53 nM | 1.6 nM | Recombinant bovine rod Pγ-subunit (PDE6 inhibitory γ-subunit) (natural protein) MNLEPPKAEIRSATRVMGGPVTPRKGPPKFKQRQTRQFKSKPPKKGVQGFGDDIPGMEGLGTDITVICPWEAFNHLELHELAQYGII
